Source: patent publication US20100160556A1 (published 2010)

B1: PEG-CM3-ANA08 (CM3-ANA08 conjugated to unbranched 40 kDa mPEG maleimido propionamide) (peptide)
peptide: HAEGTFTSDVSSYLEGQAAKEFIAWLVKGRGRRDFPEEVAIAEELGC
modifications: unbranched 40 kDa mPEG maleimido propionamide on the free thiol group of the C-terminal cysteine

Biological target: GLP-1 receptor (on a GLP-1 receptor transfected CHO cell line)
Assay: cell-based or functional assay

Row | Binder | ED50 relative to CM3 (GLP-1 bioassay, cAMP increase) [times] | IC50 (GLP-1 bioassay, cAMP increase) [µM]
1 | B1 | ~5 | –
2 | HAEGTFTSDVSSYLEGQAAKEFIAWLVKGRGRRDFPEEVAIAEELG [CM3 (GLP-1(7-37)-IP2, murine IP2)] | – | 187
3 | HAEGTFTSDVSSYLEGQAAKEFIAWLVKGRGAADFPEEVAIAEELG [CM3-ANA01] | – | 159
